According to publication PMC7572768 (Biochemistry, 2020):
Residue numbers refer to the chain shown, from its start. One block for each binder: values may come before it.

Legend:
Experiment in all cases: ELISA
cdMMP-14 N231A = cdMMP-14 N231A (Homo sapiens, UniProt P50281, N231A)
cdMMP-14 F198A = cdMMP-14 F198A (Homo sapiens, UniProt P50281, F198A)
[1] = target: cdMMP-14 P259 alanine mutant (Homo sapiens, UniProt P50281, P259 to Ala)
cdMMP-14 F260A = cdMMP-14 F260A (Homo sapiens, UniProt P50281, F260A)

- fold weakening of IC50 against cdMMP-14 wt (cdMMP-14 N231A): 14 fold
B1: Fab 2B5 (Fab, V domains shown)
VH: EVQLVESGGGLVQPGGSLRLSCAASGFNLSYSSMHWVRQAPGKGLEWVASIYPYSGYTYYADSVKGRFTISADTSKNTAYLQMNSLRAEDTAVYYCARIGVNAWAVKMSQRMLATRGSGWYVMDYWGQGTLVTVSS
VL: DIQMTQSPSSLSASVGDRVTITCRASQSVSSAVAWYQQKPGKAPKLLIYSASSLYSGVPSRFSGSRSGTDFTLTISSLQPEDFATYYCQQSSSYPYSPITFGQGTKVEIK

- IC50 (cdMMP-14 F198A): > 900 nM
- IC50 [1]: > 900 nM
B2: Fab 3E2 (Fab, V domains shown)
VH: EVQLVESGGGLVQPGGSLRLSCAASGFNIYYYSIHWVRQAPGKGLEWVASIYPYSSYTYYADSVKGRFTISADTSKNTAYLQMNSLRAEDTAVYYCARGIKGLVFTGSQMKMLRRGNYNWYVMDYWGQGTLVTVSS
VL: DIQMTQSPSSLSASVGDRVTITCRASQSVSSAVAWYQQKPGKAPKLLIYSASSLYSGVPSRFSGSRSGTDFTLTISSLQPEDFATYYCQQSSYSLITFGQGTKVEIK

- fold increase in IC50 against cdMMP-14 wt (cdMMP-14 F260A): 33 fold
B3: Fab 3E9 (Fab, V domains shown)
VH: EVQLVESGGGLVQPGGSLRLSCAASGFNLYYSSMHWVRQAPGKGLEWVASIYPSYGSTYYADSVKGRFTISADTSKNTAYLQMNSLRAEDTAVYYCARNGRYPGFLKRAHKRLLNFKAYVMDYWGQGTLVTVSS
VL: B2 VL with S91G, Y93W, S94Y
